Results on one protein are retold here after paper PMC6105217, “Modification of translation factor aIF5A from Sulfolobus solfataricus” (Extremophiles, 2018).

This data set deals with the molecule itself. Kind of data set: SEC-MALS; Superdex S200 10/300 GL increase, 20 mM Tris-HCl pH 7.5, 150 mM NaCl, 25 °C; protein pre-incubated at 65 °C for 10 min, 100 µl injected at 1.5 mg/ml.

B1: recombinant aDHS-C-His (enzyme, Sulfolobus solfataricus, UniProt Q97ZF1 1-312, looked up)
chain: MINREDLLKNPVEDITLSDLKKYNDIVSVFDKIYGFSSEGIVNGSKILKEMIKNADLRFLSFTANLVSTGLRGLFADLIKKGYFNIVVTTGGTIDHDLARSFGGVYYKGSFDIDDTMLKDLEIHRLGNVLVPFESYGKVIEDVVRKFLPEITKDRKEISAYELLWEFGKRITDSNSILRAAYDKNVPIIVPGILDGSFGTNLFIQSQFLNFRINLFEDMRLIKDLIFSSKKSGALIIGGGISKHHTIWWNQFKDGLNYAIYITTAQEYDGSLSGAKPREAISWNKIRPDAKHVTIYGDATIIVPILAASLLS
notes: deoxyhypusine synthase, Sulfolobus solfataricus P2, ORF SSO0967, amplified by PCR from genomic DNA; source: E. coli BL21 (DE3) (pQE-70-DHS-C-His), purified (Ni-NTA); not shown: His-tag, C-terminal, kept
With B1, the “stoichiometry N” value came to 4.

Broadly, the stoichiometry N is a count of units in the complex or per binding partner.
